Experimental findings from patent publication US6534267 (dated 2003) are described below.

This data set deals with the molecule itself. Nature of the data set: gel filtration of purified native Smac (self-association).

B1: 25-kDa Smac (second mitochondria-derived activator of caspase), native mature protein from HeLa cells (other)
chain: AVPIAQKSEPHSLSSEALMRRAVSLVTDSTSTFLSQTTYALIEAITEYTKAVYTLTSLYRQYTSLLGKMNSEEEDEVWQVIIGARAEMTSKHQEYLKLETTWMTAVGLSEMAAEAAYQTGADQASITARNHIQLVKLQVEEVHQLSRKAETKLAEAQIEELRQKTQEEGEERAESEQEAYLRED
notes: The HeLa protein is also about 25 kDa; Gel filtration points to a homotetramer; also called 25-kDa protein; native Smac
For B1, the binding result is “binds”.
